# Measurements published in IntAct's records for PubMed 25218446.
# B1: Pre-mRNA leakage protein 1 (Saccharomyces cerevisiae), Q07930 (parent)
# chain: MFHRRKRPYNTRNYGHDDKKFKSQYIDIMPDFSPSGLLELESNNKEGIALKHVEPQDAISPDNYMDMLGLEARDRTMYELVIYRKNDKDKGPWKRYDLNGRSCYLVGRELGHSLDTDLDDRTEIVVADIGIPEETSSKQHCVIQFRNVRGILKCYVMDLDSSNGTCLNNVVIPGARYIELRSGDVLTLSEFEEDNDYELIFMNV
# partner: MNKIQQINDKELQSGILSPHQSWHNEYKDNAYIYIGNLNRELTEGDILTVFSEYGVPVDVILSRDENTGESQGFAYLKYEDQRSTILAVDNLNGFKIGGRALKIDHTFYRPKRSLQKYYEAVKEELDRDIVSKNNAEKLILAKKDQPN
# B2: Pre-mRNA-splicing factor CWC26 (Saccharomyces cerevisiae), P46947 (parent)
# chain: MALHQYLSETYGPTKPKNKTKKKKKESKSDANSDKTSLIVKERLSTLQQEQEKSGVASFSKFDKQKSKNIWKNLETNELSHAITHPSASSITGNESKNDLKEIRAQEPLVTVADKSKTRKTIYRDAQGHKIQEDSKIDDSSFSRSKYEDEKAAEREQYLKNLNMGDVQKLGINVDAHDKKKNQTASSLTIEDPAITFTHDKERTVKTSLLGRKLYDKPAPENRFAIMPGSRWDGVHRSNGFEEKWFAKQNEINEKKVQSYTLQEDY
# partner: B1 partner
# Variants of: B1
# Settings: with ist3_yeast IST3, P40565
row,effect of a mutation on the interaction,Variant
1,decreasing interaction strength,MFHRRKRPYNTRNYGHDDKKFKSQYIDIMPDFSPSGLAELESNNKEGIALKHVEPQDAISPDNYMDMLGLEARDRTMYELVIYRKNDKDKGPWKRYDLNGRSCYLVGRELGHSLDTDLDDRTEIVVADIGIPEETSSKQHCVIQFRNVRGILKCYVMDLDSSNGTCLNNVVIPGARYIELRSGDVLTLSEFEEDNDYELIFMNV [L38A]
2,disrupting interaction strength,MFHRRKRPYNTRNYGHDDKKFKSQYIDIMPDASPSGLLELESNNKEGIALKHVEPQDAISPDNYMDMLGLEARDRTMYELVIYRKNDKDKGPWKRYDLNGRSCYLVGRELGHSLDTDLDDRTEIVVADIGIPEETSSKQHCVIQFRNVRGILKCYVMDLDSSNGTCLNNVVIPGARYIELRSGDVLTLSEFEEDNDYELIFMNV [F32A]

# Variants of: B2
# Settings: with ist3_yeast IST3, P40565
row,effect of a mutation on the interaction,Variant
1,disrupting interaction strength,R237A
2,decreasing interaction strength,F224A
3,disrupting interaction strength,W232A
4,decreasing interaction strength,V235A
